# Target: microtubules (MT fraction from mouse brain) (mouse (endogenous in mouse brain)) (UniProt P68369)
# Experiment: co-sedimentation
substance,measurement,value
recombinant human tau lacking the MT-binding domain (tau ΔMTBD) (from UniProt P10636-6 1-383) (natural protein),MT-bound fraction,0.619
same,MT-unbound fraction,0.381
